# From the DeepSol protein solubility set
# Test: soluble on expression in E. coli; label from the status in PepcDB or PDB records
row,Sequence,soluble on expression in E. coli
1,MRGSHHHHHHGSLMPGGKEFYNFYPEYVVGLQWMGDNYVFIEGDDLVFNKANGKSAQTTRFSAADLNALMPEGCKFQTTDAFPSFRTLDAGRGLVVLFTQGGLVGFDMLARKVTYLFDTNEETASLDFSPVGDRVAYVRNHNLYIARGGKLGEGMSRAIAVTIDGTETLVYGQAVHQREFGIEKGTFWSPKGSCLAFYRMDQSMVKPTPIVDYHPLEAESKPLYYPMAGTPSHHVTVGIYHLATGKTVYLQTGEPKEKFLTNLSWSPDENILYVAEVNRAQNECKVNAYDAETGRFVRTLFVETDKHYVEPLHPLTFLPGSNNQFIWQSRRDGWNHLYLYDTTGRLIRQVTKGEWEVTNFAGFDPKGTRLYFESTEASPLERHFYCIDIKGGKTKDLTPESGMHRTQLSPDGSAIIDIFQSPTVPRKVTVTNIGKGSHTLLEAKNPDTGYAMPEIRTGTIMAADGQTPLYYKLTMPLHFDPAKKYPVIVYVYGGPHAQLVTKTWRSSVGGWDIYMAQKGYAVFTVDSRGSANRGAAFEQVIHRRLGQTEMADQMCGVDFLKSQSWVDADRIGVHGWAYGGFMTTNLMLTHGDVFKVGVAGGPVIDWNRYEIMYGERYFDAPQENPEGYDAANLLKRAGDLKGRLMLIHGAIDPVVVWQHSLLFLDACVKARTYPDYYVYPSHEHNVMGPDRVHLYETITRYFTDHL,soluble
2,MAHHHHHHMIDDVRICHLVLQDVKERLPLYESRLEAVNNSHVVISCWNESVKAFVPVPVAEDVEFTSDVLHEVVSLVDGLRQLGCTDFFVVFVDSGGTLSFYHVDTLRLLQSGRSGSS,not soluble
3,MKILLIGGSGNIGRAIAAELSGRHEIIAAGRHHGDVRVDIEDEQSIAAMYRQLPRLDAVAVATGGRNGHVGPLAEMNAERYRVGLDAKLMGQVNLVLRGLDKVADGGSFTLVGGAWQPQAIVPLLSNVYMANAALEGFVNAAAVELPRRLRINLVSPLLLAESEAEYGPLFRGVPLVEARQVARAYSLSIEGLEHHHHHH,not soluble
4,MGHHHHHHSHMDWNKTYAAIYRARKDYLKPIFEIDPIALKDLVGMESQKKALYENTLNFIQDKGANHALLWGSKGTGKSSLIKAIFNEFKEQGLRLVELNKEDLFALADIIDEIRLENFKFILFCDDFSFEKGDDSYKFLKPLLEGSIEKAPNNVIIYASSNRRHLLSESITDNLDTQITHTELHLSDAAEERLSLSDRFG,soluble
5,MKEIDWANLSFGYMKTDYNVRINFRNGAWGELEVSSDEHLNLHMAATCLHYGQEAFEGLKAFRGKDGKVRIFRLEENAARLQSTCQGILMAELPTERFKEAILKVVKLNERFIPPYETGASLYIRPLLIGTSAQVGVHPAEEYMFVVFVTPVGPYFKGGFSTNPYVIIREFDRAAPHGTGIYKVGGNYAASLRANKKAHDLGYSCEFYLDAKEKKYIDECGAANFFGIKDNTYITPKSSSILPSITNKSLMQLAEDMGIKVERRPIPEEELETFEEAGACGTAAVISPIQRIDDLENGKSYVISKDGKPGPICTKLYNKLRGIQYGDEPDTHGWVTIVE,not soluble
6,MEAWIAEAKALLAALVAVPSVSAEGRALREGAEKVAEVLEGLGLRAELHEGYGPPVVFAEGGEGERTLLFYNHYDVQPPDPLELWDTDPFVLAEREGAWYARGAHDYKGELVVRVVALRRFQEKHGFLPRVKFVVEGEEEVGSPHLEAYVADKRDLLKAEAILWEAGGVDAKGRPYLYAGLKGIVALELRVRTAAFDLHSSYGAVVENPIYRLSRALASLRDEEGRVLIPGFYAKVRPLTPLEMEVLAQIPDESEALREAFGVRDFLGGARNLDFNQRLYAEPCVNFNGFHAGYGGPGSKTVLPAEARAKLDFRLVPDQDPEEVPELLRRHLEAQGFHDVEVVVLEKGERPARSDLAHPFVALARRALEEAFGERPVLYPNMAGSGPMHPFLHHLKAPAVGLGVGYPGSRVHSPNEHIRVRDFERGVQALLRLLELFFLGR,soluble
7,MPELPEVETVRRELEKRIVGQKIISIEATYPRMVLTGFEQLKKELTGKTIQGISRRGKYLIFEIGDDFRLISHLRMEGKYRLATLDAPREKHDHLTMKFADGQLIYADVRKFGTWELISTDQVLPYFLKKKIGPEPTYEDFDEKLFREKLRKSTKKIKPYLLEQTLVAGLGNIYVDEVLWLAKIHPEKETNQLIESSIHLLHDSIIEILQKAIKLGGSSIRTYSALGSTGKMQNELQVYGKTGEKCSRCGAEIQKIKVAGRGTHFCPVCQQK,soluble
